Drawing on paper PMC7736812, this text covers Kd, koff and kon for one molecule.

Usually Kd stands for the constant that tells how readily two partners part at equilibrium. A word on the koff: it is the first-order rate constant of dissociation. What is called kon is the rate constant with which the complex forms.

This experiment addresses 70S ribosomes from E. coli MRE600 (vacant) (E. coli). The experiment in a line: stopped-flow Rayleigh light scattering (325 nm) of 70S dissociation; 70S ribosomes (0.05 uM) rapidly mixed with increasing GTPBP6 with 0.5 mM GTP, phosphoenol pyruvate and pyruvate kinase; 50 mM Tris-HCl pH 7.5, 70 mM NH4Cl, 30 mM KCl, 7 mM MgCl2, 37°C; kapp against GTPBP6 concentration, linear fit: slope = association, intercept = dissociation rate constant, Kd from their ratio.

B1: GTPBP6Δ43 (purified recombinant GTPBP6) (domain or fragment)
chain: PGNLEGPWGGGRGLRADGGRSRTGDDEEEPEDADENAEEELLRGEPLLPAGTQRVCLVHPDVKWGPGKSQMTRAEWQVAEATALVHTLDGWSVVQTMVVSTKTPDRKLIFGKGNFEHLTEKIRGSPDITCVFLNVERMAAPTKKELEAAWGVEVFDRFTVVLHIFRCNARTKEARLQVALAEMPLHRSNLKRDVAHLYRGVGSRYIMGSGESFMQLQQRLLREKEAKIRKALDRLRKKRHLLRRQRTRREFPVISVVGYTNCGKTTLIKALTGDAAIQPRDQLFATLDVTAHAGTLPSRMTVLYVDTIGFLSQLPHGLIESFSATLEDVAHSDLILHVRDVSHPEAELQKCSVLSTLRGLQLPAPLLDSMVEVHNKVDLVPGYSPTEPNVVPVSALRGHGLQELKAELDAAVLKATGRQILTLRVRLAGAQLSWLYKEATVQEVDVIPEDGAADVRVIISNSAYGKFRKLFPG
As to B1, the dissociation constant (Kd) was 0.7 µM, the dissociation rate constant (koff) amounted to 0.09 s⁻¹ and the on-rate constant (kon) is 130000 M⁻¹ s⁻¹.
